{"source": "IntAct's records for PubMed 16230351", "parents": {"B1": {"name": "E3 ubiquitin-protein ligase SIAH1 (Homo sapiens), Q8IUQ4 (parent)", "chain": "MSRQTATALPTGTSKCPPSQRVPALTGTTASNNDLASLFECPVCFDYVLPPILQCQSGHLVCSNCRPKLTCCPTCRGPLGSIRNLAMEKVANSVLFPCKYASSGCEITLPHTEKADHEELCEFRPYSCPCPGASCKWQGSLDAVMPHLMHQHKSITTLQGEDIVFLATDINLPGAVDWVMMQSCFGFHFMLVLEKQEKYDGHQQFFAIVQLIGTRKQAENFAYRLELNGHRRRLTWEATPRSIHEGIATAIMNSDCLVFDTSIAQLFAENGNLGINVTISMC", "partner": "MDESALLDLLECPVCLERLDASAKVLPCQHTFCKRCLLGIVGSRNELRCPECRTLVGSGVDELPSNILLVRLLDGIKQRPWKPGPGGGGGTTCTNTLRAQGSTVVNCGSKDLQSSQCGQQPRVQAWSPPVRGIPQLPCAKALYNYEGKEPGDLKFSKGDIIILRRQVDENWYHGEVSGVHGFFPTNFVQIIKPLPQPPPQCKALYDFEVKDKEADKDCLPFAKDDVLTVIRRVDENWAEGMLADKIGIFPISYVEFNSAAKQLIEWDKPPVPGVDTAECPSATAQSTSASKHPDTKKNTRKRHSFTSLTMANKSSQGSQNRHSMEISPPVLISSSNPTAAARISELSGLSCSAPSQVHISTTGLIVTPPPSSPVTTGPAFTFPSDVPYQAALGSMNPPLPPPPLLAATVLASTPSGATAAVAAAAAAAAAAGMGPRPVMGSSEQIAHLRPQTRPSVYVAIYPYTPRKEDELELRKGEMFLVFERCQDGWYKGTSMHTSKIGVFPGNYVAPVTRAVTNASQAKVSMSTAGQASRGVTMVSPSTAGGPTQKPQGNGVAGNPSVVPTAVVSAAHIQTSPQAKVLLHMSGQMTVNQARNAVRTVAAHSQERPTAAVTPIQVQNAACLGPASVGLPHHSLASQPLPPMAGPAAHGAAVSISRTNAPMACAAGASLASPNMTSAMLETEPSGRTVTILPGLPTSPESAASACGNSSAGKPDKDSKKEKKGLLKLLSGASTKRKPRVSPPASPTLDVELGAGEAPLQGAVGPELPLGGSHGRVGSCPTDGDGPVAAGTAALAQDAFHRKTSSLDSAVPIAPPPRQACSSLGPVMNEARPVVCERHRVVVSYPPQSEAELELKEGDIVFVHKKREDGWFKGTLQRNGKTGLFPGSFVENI"}}}
{"variants_of": "B1", "details": "with sh3r1_mouse Sh3rf1, Q69ZI1"}
{"variant": "C41S;C44S", "effect of a mutation on the interaction": "decreasing interaction"}
